Measurements reported in paper PMC4605305, “TRAP150 interacts with the RNA-binding domain of PSF and antagonizes splicing of numerous PSF-target genes in T cells” (Nucleic Acids Research, 2015).

Tests used:
[1] = molecular target: T1, PSF exRRM2 (human, UniProt P23246 366-484); test: EMSA; affinity similar to exRRMs; UV crosslinking: 12 mM Tris pH 7.5, 120 mM NaCl, 3 mM MgCl2, 1 mM ATP, 20 mM phosphocreatine, 0.1 mM EDTA, 12% glycerol, 1.3% PVA, 25 ng/ul yeast tRNA, 20 ng/ul; settings: protein: recombinant; tags: 6xHis-FLAG N-term; label: uniform 32P
T1 sequence: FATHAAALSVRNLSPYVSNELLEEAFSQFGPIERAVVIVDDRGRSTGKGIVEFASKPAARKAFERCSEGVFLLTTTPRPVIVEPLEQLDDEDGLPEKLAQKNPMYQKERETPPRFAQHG

[2] = molecular target: T2, PSF full-length (PSF-FL) (human, UniProt P23246 1-707); test: UV crosslinking; higher affinity than exRRMs; UV crosslinking: 12 mM Tris pH 7.5, 120 mM NaCl, 3 mM MgCl2, 1 mM ATP, 20 mM phosphocreatine, 0.1 mM EDTA, 12% glycerol, 1.3% PVA, 25 ng/ul yeast tRNA, 20 ng/ul; settings: protein: recombinant; tags: 6xHis-FLAG N-term; chain copies: 2; label: uniform 32P
T2 sequence: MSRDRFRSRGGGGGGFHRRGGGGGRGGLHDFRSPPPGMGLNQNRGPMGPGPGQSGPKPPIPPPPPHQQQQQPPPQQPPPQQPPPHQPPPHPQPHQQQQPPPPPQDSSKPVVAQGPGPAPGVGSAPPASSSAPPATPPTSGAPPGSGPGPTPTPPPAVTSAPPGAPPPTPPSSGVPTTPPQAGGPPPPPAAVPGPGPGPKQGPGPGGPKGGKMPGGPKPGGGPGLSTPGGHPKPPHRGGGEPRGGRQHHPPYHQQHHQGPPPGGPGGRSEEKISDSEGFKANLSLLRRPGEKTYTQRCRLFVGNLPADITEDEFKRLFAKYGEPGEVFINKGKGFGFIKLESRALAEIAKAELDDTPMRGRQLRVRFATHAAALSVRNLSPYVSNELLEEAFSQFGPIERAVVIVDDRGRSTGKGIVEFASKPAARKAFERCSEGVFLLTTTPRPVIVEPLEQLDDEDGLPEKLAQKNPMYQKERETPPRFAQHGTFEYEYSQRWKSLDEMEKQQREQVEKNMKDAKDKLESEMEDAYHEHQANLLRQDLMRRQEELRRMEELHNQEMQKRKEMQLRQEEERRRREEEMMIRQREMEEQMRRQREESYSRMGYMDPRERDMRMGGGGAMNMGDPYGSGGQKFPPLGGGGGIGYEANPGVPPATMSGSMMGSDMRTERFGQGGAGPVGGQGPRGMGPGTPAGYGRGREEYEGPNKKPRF

[3] = molecular target: T3, PSF exRRMs (human, UniProt P23246 266-484); test: EMSA; UV crosslinking: 12 mM Tris pH 7.5, 120 mM NaCl, 3 mM MgCl2, 1 mM ATP, 20 mM phosphocreatine, 0.1 mM EDTA, 12% glycerol, 1.3% PVA, 25 ng/ul yeast tRNA, 20 ng/ul; settings: protein: recombinant; tags: 6xHis-FLAG N-term; label: uniform 32P
T3 sequence: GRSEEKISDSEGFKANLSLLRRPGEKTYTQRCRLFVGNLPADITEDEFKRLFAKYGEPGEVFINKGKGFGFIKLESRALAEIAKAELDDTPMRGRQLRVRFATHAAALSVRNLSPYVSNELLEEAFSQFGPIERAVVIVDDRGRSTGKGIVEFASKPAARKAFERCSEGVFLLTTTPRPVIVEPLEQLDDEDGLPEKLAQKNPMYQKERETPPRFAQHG

[4] = molecular target: T4, PSF minRRMs (human, UniProt P23246 299-449); test: UV crosslinking competition; GST-TRAP150 PID (686-755), no inhibition; UV crosslinking: 12 mM Tris pH 7.5, 120 mM NaCl, 3 mM MgCl2, 1 mM ATP, 20 mM phosphocreatine, 0.1 mM EDTA, 12% glycerol, 1.3% PVA, 25 ng/ul yeast tRNA, 20 ng/ul; settings: protein: recombinant; tags: 6xHis-FLAG N-term; label: uniform 32P
T4 sequence: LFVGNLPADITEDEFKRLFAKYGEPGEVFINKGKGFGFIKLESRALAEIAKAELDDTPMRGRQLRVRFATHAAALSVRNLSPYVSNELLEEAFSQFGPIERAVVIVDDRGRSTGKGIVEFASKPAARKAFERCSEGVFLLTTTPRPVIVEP

[5] = molecular target: T5, hnRNP L (UniProt P14866 1-589); test: as above; settings: protein: recombinant; tags: 6xHis; label: uniform 32P
T5 sequence: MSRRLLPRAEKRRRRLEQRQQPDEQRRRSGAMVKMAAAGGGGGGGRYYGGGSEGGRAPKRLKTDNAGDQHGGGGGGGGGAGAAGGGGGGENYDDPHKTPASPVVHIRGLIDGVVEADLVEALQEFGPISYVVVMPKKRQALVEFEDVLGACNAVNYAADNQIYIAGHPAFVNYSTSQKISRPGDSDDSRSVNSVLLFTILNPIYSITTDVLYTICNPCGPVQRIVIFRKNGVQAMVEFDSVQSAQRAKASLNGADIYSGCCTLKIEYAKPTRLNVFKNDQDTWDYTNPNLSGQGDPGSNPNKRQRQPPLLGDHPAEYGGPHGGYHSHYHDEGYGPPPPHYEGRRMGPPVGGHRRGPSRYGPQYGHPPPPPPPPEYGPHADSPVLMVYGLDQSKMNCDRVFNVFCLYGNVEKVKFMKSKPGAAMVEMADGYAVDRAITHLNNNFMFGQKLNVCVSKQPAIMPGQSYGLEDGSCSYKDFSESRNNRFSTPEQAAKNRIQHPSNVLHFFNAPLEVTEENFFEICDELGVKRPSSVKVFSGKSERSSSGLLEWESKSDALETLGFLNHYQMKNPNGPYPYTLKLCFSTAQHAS

[6] = molecular target: T6, GST-TRAP266–755 (UniProt Q9Y2W1 266-755); test: pull-down; 40 ug GST-tagged bait on glutathione sepharose 4B beads; prey incubated 1.5 h at 4°C in PBS; washes with PBS supplemented with 300 mM NaCl; western blot; settings: both partners purified
T6 construct: source: E. coli Rosetta(DE3)pLysS, purified (glutathione sepharose, SEC); not shown: GST, N-terminal, kept
T6 sequence (looked up): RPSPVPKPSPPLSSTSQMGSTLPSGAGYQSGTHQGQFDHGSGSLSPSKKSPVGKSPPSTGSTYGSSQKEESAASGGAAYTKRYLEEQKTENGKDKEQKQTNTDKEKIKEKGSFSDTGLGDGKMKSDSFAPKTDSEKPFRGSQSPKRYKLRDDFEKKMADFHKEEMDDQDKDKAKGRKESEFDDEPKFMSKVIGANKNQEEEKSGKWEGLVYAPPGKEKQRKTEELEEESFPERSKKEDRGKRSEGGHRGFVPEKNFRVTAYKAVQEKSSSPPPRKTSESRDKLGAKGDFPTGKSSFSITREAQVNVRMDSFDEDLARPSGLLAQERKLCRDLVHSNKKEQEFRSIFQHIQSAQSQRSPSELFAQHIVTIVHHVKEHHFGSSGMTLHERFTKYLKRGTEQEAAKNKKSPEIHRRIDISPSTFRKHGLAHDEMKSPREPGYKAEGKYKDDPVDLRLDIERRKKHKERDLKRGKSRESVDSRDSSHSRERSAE

[7] = molecular target: T7, GST-TRAPΔN (TRAP150 266-955) (UniProt Q9Y2W1 266-955); test: as above; settings: both partners purified
T7 construct: pGEX-6-P1; also called GST-TRAP150ΔN; TRAP150-ΔN; source: E. coli Rosetta(DE3)pLysS, purified (glutathione sepharose, SEC); not shown: GST, N-terminal, kept
T7 sequence (looked up): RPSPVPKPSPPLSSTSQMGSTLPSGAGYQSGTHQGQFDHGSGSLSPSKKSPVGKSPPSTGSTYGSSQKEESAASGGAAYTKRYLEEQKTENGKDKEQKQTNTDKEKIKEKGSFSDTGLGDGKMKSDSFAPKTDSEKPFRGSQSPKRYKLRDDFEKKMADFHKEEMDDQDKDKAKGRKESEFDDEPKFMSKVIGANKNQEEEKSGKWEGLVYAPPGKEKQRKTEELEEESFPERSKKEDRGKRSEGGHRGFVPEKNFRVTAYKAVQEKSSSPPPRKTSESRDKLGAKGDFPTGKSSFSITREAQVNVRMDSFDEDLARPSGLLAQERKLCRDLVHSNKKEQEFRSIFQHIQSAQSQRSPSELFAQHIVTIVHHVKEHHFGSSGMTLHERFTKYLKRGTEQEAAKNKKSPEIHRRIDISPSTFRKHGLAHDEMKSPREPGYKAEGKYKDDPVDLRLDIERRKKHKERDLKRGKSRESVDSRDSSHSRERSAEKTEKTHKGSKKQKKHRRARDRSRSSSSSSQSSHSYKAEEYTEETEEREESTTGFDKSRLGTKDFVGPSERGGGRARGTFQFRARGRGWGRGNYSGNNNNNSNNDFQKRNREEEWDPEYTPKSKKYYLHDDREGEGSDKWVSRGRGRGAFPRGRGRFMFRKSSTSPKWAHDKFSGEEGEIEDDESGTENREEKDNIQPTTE

Measured: binding result

B1: ESS1 (ssRNA)
RNA: ACGCGUCCACUUUCAAGUGACCCCUUACCUACUCACACCACUGCAUUCUCACCCGCAAGCACCUUUGACGCGU
not listed: [6] | [7]
binds: all other assays above

B2: HisFLAG-PSF exRRMs (266-484) (domain or fragment, UniProt P23246 266-484, looked up)
chain: T3 sequence
notes: also called HisFLAG-exRRMs; HFexRRM1+2; source: E. coli Rosetta(DE3)pLysS, purified (Ni-NTA, SEC); not shown: His6, N-terminal, kept; FLAG, N-terminal, kept
binds: [6] | [7]
